In patent publication US20230095569A1 (published 2023):
Substitutions are numbered along the chain they refer to.

B1: Ab10 (antibody, V domains shown)
VH: EVMLVESGGGLVKPGGSLKLSCAASGFTFSSYTMSWVRQTPEKRLEWVATISVIGGNTYYVDSVKGRFTISRDKAKNTLYLQMSSLRSEDTALYYCARLGQTQRNAMDYWGQGTSVTVSS
VL: DIVMTQSPSSLSVSAGEKVTMSCKSSQSLLNSGNQKNYLAWYQQKPGQPPKLLIYGASTRESGVPDRFTGSGSGTDFTLTISSVQAEDLAVYYCQNDYSYPLTFGAGTKLELK
B2: Ab17 (antibody, V domains shown)
VH: QVQLKESGPGLVAPSQSLSITCTVSGFSLTSYAISWVRQPPGKGLEWLGEIWTGGGTNYNSALKSRLSISKDNSKSQVFLKMNSLQTDDTARYYCGRLSYGNSLDYWGQGTTLTVSS
VL: B1 VL with S12T, S14T, A40T, G56W, I81V, D97N, Y98F, S99I, A106P
B3: Ab15 (antibody, V domains shown)
VH: EVMLVESGGDLVKPGGSLKLSCAASGFTFSTYTMSWVRQTPEKRLEWVATIVGGGGYTYYLDSVKGRFTISRDNAKNTLYLQMISLRSEDTALYYCARMGLTQRNALDYWGQGTSITVSS
VL: B1 VL with A15E, M21L, S22N, L30F, S73F, Y98H, S99T, T108A
B4: IMB362 (antibody, V domains shown)
VH: QVQLQQPGAELVRPGASVKLSCKASGYTFTSYWINWVKQRPGQGLEWIGNIYPSDSYTNYNQKFKDKATLTVDKSSSTAYMQLSSPTSEDSAVYYCTRSWRGNSFDYWGQGTTLTVSS
VL: DIVMTQSPSSLTVTAGEKVTMSCKSSQSLLNSGNQKNYLTWYQQKPGQPPKLLIYWASTRESGVPDRFTGSGSGTDFTLTISSVQAEDLAVYYCQNDYSYPFTFGSGTKLEIKR
B5: IMAB362 (antibody, V domains shown)
VH: B4 VH
VL: B4 VL
B6: humanized Ab17 (VH5×VLN1) (antibody, V domains shown)
VH: QVQLQESGPGLVKPSQTLSLTCTVSGFSLTSYAISWVRQPAGKGLEWLGEIWTGGGTNYNSALKSRVSISKDNSKSQVFLKLSSVTAADTARYYCGRLSYGNSLDYWGQGTLVTVSS
VL: DIVMTQSPDSTTVLLGERATINCKSSQSLLNSGNQKNYLAWYQQKPGQPPKLLIYWASTRESGVPDRFSGSGSGTDFTLTISSLQAEDVAVYYCQNNFIYPLTFGPGTKLEIK
B7: humanized Ab15 (VH3×VLN1) (antibody, V domains shown)
VH: B3 VH with D10G, L11V, K13Q, K19R, I84N, S88T, S115L
VL: B6 VL with T11L, T12A, L14S, L30F, W56G, S73F, N97D, F98H, I99T, P106A
B8: humanized Ab10 (VHN1×VLN1) (antibody, V domains shown)
VH: B1 VH with K13Q, K19R, E42G, A75S, S84N, S88A, L93V, S115L
VL: B1 VL with S9D, S12A, K18R, V19A, S22N, T69S, V84L, L89V, L112I
B9: humanized Ab17 (VH1×VLN1) (antibody, V domains shown)
VH: B6 VH with Q5K, Q16E, A41P, T86Q
VL: B6 VL
B10: humanized Ab10 (VH3×VLN1) (antibody, V domains shown)
VH: B1 VH with M3Q, K13Q, K19R, T40A, S84N, S88A, S115L
VL: B1 VL with S9D, S12A, K18R, V19A, S22N, T69S, V84L, L89V, L112I
B11: humanized Ab15 (VHN1×VL2) (antibody, V domains shown)
VH: B3 VH with D10G, K13Q, K19R, E42G, A75S, I84N, S88A, L93V
VL: DIVMTQSPLSLPVTPGEPASISCKSSQSLFNSGNQKNYLAWYLQKPGQPPKLLIYGASTRESGVPDRFTGSGFGTDFTLKISRVEAEDVGVYYCQNDHTYPLTFGAGTKLEIK
B12: chAb15 (antibody, V domains shown)
VH: B3 VH
VL: B1 VL with A15E, M21L, S22N, L30F, S73F, Y98H, S99T, T108A
B13: chAb10 (antibody, V domains shown)
VH: B1 VH
VL: B1 VL
B14: chAb17 (antibody, V domains shown)
VH: B2 VH
VL: B1 VL with S12T, S14T, A40T, G56W, I81V, D97N, Y98F, S99I, A106P

Target: T1, human Claudin18.2 (CLDN18.2) (UniProt P56856 1-261)
Assay: FACS cell binding; SNU620 cells

Point of comparison: B3, EC50 5.32 nM. Against it:
- B1 — within 1.5-fold, 5.54 nM
- B2 — 2-fold higher, 10.8 nM

Target: SNU620 cells (UniProt P56856 1-261)
Assay: FACS cell binding; SNU620 cells

B4 gave an EC50 of roughly 7540 nM.

Target: GAXC031 cells (UniProt P56856 1-261)
Assay: FACS cell binding; GAXC031 cells

B5 gave an EC50 of 452 nM.

Target: T1, human Claudin18.2 (CLDN18.2)
Assay: FACS cell binding; GAXC031 cells

Point of comparison: B14, EC50 47 nM. Against it:
- B6 — within 1.5-fold, 48.9 nM
- B7 — 1.6-fold lower, 28.6 nM
- B8 — within 1.5-fold, 43.8 nM
- B9 — within 1.5-fold, 43.7 nM
- B10 — within 1.5-fold, 60.9 nM
- B11 — within 1.5-fold, 32.2 nM
- B12 — 1.9-fold lower, 25.1 nM
- B13 — within 1.5-fold, 49.2 nM

Target: T1, human Claudin18.2 (CLDN18.2)
Assay: FACS cell binding; KATO III cells

Point of comparison: B1, EC50 20.9 nM. Against it:
- B2 — 1.9-fold higher, 39.3 nM
- B3 — within 1.5-fold, 27.2 nM
